In patent publication US20200239586A1 (LA TROBE UNIVERSITY, published 2020):
One block for each binder: values may come before it.

Key:
[1] = molecular target: T1, synthetic peptide hFn14 sub-domain 2 (human, biotin on the added C-terminal lysine; disulfide bonds as in the solution structure of He et al. 2009); test: ELISA, synthetic biotin peptide on neutravidin plate; antibody concentration not given
T1 construct: also called sub-domain 2 peptide
T1 peptide: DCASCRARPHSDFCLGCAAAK
From the text: FIG. 21B is a graphical representation showing reactivity of anti-Fn14 mAbs CRCBT-06-001, CRCBT-06-002, CRCBT-06-003, CRCBT-06-004, CRCBT-06-005, CRCBT-06-006, CRCBT-06-007 and ITEM-1 with a synthetic peptide representing sub-domain 2 of Fn14. Plates were coated with sub-domain 2 peptide and various dilutions of antibody were allowed to bind, bound antibody was detected with anti-mouse HRP and TMB substrate. The average of duplicate readings are plotted, error bars represent standard deviations. The ELISA was repeated to ensure consistent results. The vertical line at 5 ng/ml within the linear part of the curves is the point at which a comparison of the reactivity of each mAb was analyzed.
The ELISA was performed essentially according to the manufacturer's recommended protocol (Pierce). Briefly, peptide was coated onto wells (in duplicate) at 1-10 μg/ml for 2 hours at room temperature. Wells were washed in PBS/0.05% Tween 20/0.1% BSA 3 times and dilutions of each antibody were added in wash buffer for 1 hour with gentle agitation. After another three washes anti-mouse HRP-conjugated to horse radish peroxidase (HRP; Chemicon) was added at 1/1000 dilution for 1 hour shaking. […] Optical density at 450 nm was quantified using a Spectromax absorbance spectrophotometer.

[2] = molecular target: T2, human Fn14 (human, UniProt Q9NP84 28-129); test: cell-based or functional assay
T2 sequence: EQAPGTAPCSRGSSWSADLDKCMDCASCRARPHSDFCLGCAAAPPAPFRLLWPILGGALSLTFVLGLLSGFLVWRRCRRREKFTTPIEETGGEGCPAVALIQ

[3] = molecular target: phage expressed hFn14 mutant D62A (human, UniProt Q9NP84 28-77); test: phage ELISA (Method 2): antibody coated on the plate, 10-fold dilutions of phage displaying hFn14 D62A; biotin anti-M13 antibody, streptavidin-HRP, TMB, OD 450 nm; x axis = dilution of phage
From the text: ELISAs showing the reactivity of mutant hFn14 phage constructs with the anti-Fn14 monoclonal antibodies CRCBT-06-001, CRCBT-06-002, CRCBT-06-004 compared to ITEM-1 and ITEM-4. Binding was detected using Biotin-conjugated anti-M13-phage monoclonal antibody followed by HRP-conjugated Streptavidin and TMB substrate. Optical density at 450 nm was quantified using a Spectramax spectrophotometer. Error bars for each dilution represent the standard deviation of duplicate assays. FIG. 28A L46A, FIG. 28B D51A and FIG. 28C D62A. In all cases error bars represent the standard deviation. X axis=dilution of phage. Methods according to Epitope mapping using phage expressed Fn14—Method 2.
(§1) The wells of Maxisorp immunoplates (Nunc) were coated overnight at 4° C. with the target monoclonal antibodies or recombinant Tweak-Fc at a concentration of 1.5 μg/ml in PBS. mAb 5G8 was used as a negative control for ELISA plates coated with tested antibodies. […] 10-fold serial dilutions of phage were made using PBS solution and phage dilutions were added to the coated, blocked ELISA plates for 1 hour, shaking at room temperature. […]
Method A: HRP-conjugated anti-M13-phage antibody (GE Healthcare) at a 1/5000 dilution in PBS was then added to the wells of the ELISA plates for 1 hour, shaking at room temperature. […] Optical density at 450 nm was quantified using a Spectramax absorbance spectrophotometer.

[4] = molecular target: T3, synthetic peptide Sub-domain 2 Cys 4&5 ΔS (human, not fully specified; biotin on the added C-terminal lysine); test: peptide ELISA: biotinylated synthetic peptide on neutravidin plate, antibody titrated (legend: 1-0.0001 µg/ml; axis 'Log (c)'), anti-mouse HRP, TMB, OD 450 nm
T3 construct: also called sub-domain 2 cys4&5ΔS mutant
T3 peptide: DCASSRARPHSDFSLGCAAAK

[5] = molecular target: phage expressed hFn14 mutant L65A (human, UniProt Q9NP84 28-77); test: phage ELISA (Method 2): antibody coated on the plate, 10-fold dilutions of phage displaying hFn14 L65A; biotin anti-M13 antibody, streptavidin-HRP, TMB, OD 450 nm; x axis = dilution of phage
From the text: For mutants P59A and F63A, binding was detected using HRP-conjugated anti-M13-phage polyclonal IgG and TMB substrate. For all other mutants binding was detected using Biotin-conjugated anti-M13-phage monoclonal antibody followed by HRP-conjugated Streptavidin and TMB substrate. Optical density at 450 nm was quantified using a Spectramax spectrophotometer. Error bars for each dilution represent the standard deviation of duplicate assays. FIG. 27A wild type Fn14, FIG. 27B W42A, FIG. 27C S54A, FIG. 27D A57G, FIG. 27E P59A, FIG. 27F S61A, FIG. 27G F63A, FIG. 27H L65A. In all cases error bars represent the standard deviation. X axis=dilution of phage. Methods according to Epitope mapping using phage expressed Fn14—Method 2
as §1, with “temperature. Phage was subsequently removed from the wells and the ELISA plates were washed three times with PBS/0.05% Tween 20.” for “temperature.”

binding result [1]: binds | % Agonist, IL-8 secretion by A375 cells [2]: 128% | binding result [3]: binds | binding result [4]: binds | binding result [5]: binds
B1: CRCBT-06-001 (antibody, IgG2b, V domains shown)
VH: QVQLQQSGGGLVQPGGSMKLSCIASGFTFSSYWMSWVRQSPEKGLEWVAEIRSKSDNYATHYAESVKGKFTISRDDSKSRFFLQMNNLRAEDTGIYYCSSTYADYFHYWGQGTDLTVSS
VL: DIVMTQTPASLAVSLGQRATISCRASQSVSTSTYSYMHWYQQKPGQPPKLLIKYASSLESGVPARFSGSGSGTDFTLNIHPVEEDDTATYYCQHSWEIPYTFGGGTKLEIKR

binding result [1]: binds | % Agonist, IL-8 secretion by A375 cells [2]: 11% | % Antagonist, IL-8 secretion by A375 cells [2]: 94% | binding result [3]: binds | binding result [4]: binds | binding result [5]: binds
B2: CRCBT-06-002 (antibody, IgG1, V domains shown)
VH: EVKLQQSGGGLVQPGGSMKLSCVASGFTFSYYWMNWVRQSPEQGLEWIAEIRLQSNDYPTHYAESVKGRFTISRDDSKNSVYLQMNNLRPEDTGIYYCACRYADYFDHWGQGTTLTVSS
VL: DTVLTQSPASLVVSLGQRATISCRASQSVSTSDYSYIHWYQQKPGQPPKFLIKYASNRDSGVPARFSGSGSGTDFTLNIHPVEEDDTAIYYCQHSWEIPPTFGAGTKLELQR
